One may read the EC50 as the midpoint of the concentration-response curve.

We go through two molecules from patent US20250066456A1 (NOVAVAX, published 2025).

Where two headings read alike, the source gives them in different places. A value given as a limit tells only on which side of the number the result lay.

Common to all, as to assay: ELISA, plate coated with rS, serial dilution of the mAb, anti-mouse HRP, A450
(An ELISA detects its analyte on a solid surface through an enzyme-linked reagent.)

Assay [1] deals with BV2438 (recombinant CoV S glycoprotein, Beta) (SARS-CoV-2, UniProt P0DTC2 14-1273).
Assay [2] has as its target T1, BV2509 (recombinant CoV S glycoprotein, BA.1) (SARS-CoV-2, UniProt P0DTC2 14-1273).
Assay [3] concerns the target T2, BV2443 (recombinant CoV S glycoprotein, Gamma) (SARS-CoV-2, UniProt P0DTC2 14-1273).
Assay [4] concerns the target BV2465 (recombinant CoV S glycoprotein, Delta) (SARS-CoV-2, UniProt P0DTC2 14-1273).
Assay [5] addresses T3, BV2425 (recombinant CoV S glycoprotein, Alpha) (SARS-CoV-2, UniProt P0DTC2 14-1273).
Assay [6] deals with T1, BV2509 (recombinant CoV S glycoprotein, …). This is another data set of the same source.
Assay [7] deals with T2, BV2443 (recombinant CoV S glycoprotein, …). This is another data set of the same source.
The target of assay [8] is T3, BV2425 (recombinant CoV S glycoprotein, …). The source holds these as a separate data set.

B1: 425.6 (antibody, V domains shown)
VH: VQLKQSGPSLVQPSQSLSITCTVSGFSLTSYGIHWVRQSPGKGLEWLGVIWRGGSTDYNAAFMSRLTITKDNSKSQVFFKMNSLQADDTAIYYCATHTEGDDVDYWGQGTSVTVSS
VL: QIVLTQSPAIMSVSPGEKVTMTCSASSTMSFMYWYQQKPGSSPRLLIYDTSNLASGVPVRFSGSGSGTSYSLTISRVEAEDAATYYCQQWNTYPLTFGAGTKLELKR
As to B1, the EC50 in assay [1] was 0.011 µg/mL; in assay [2], greater than 1 µg/mL; in assay [3], 0.01 µg/mL; in assay [4], 0.012 µg/mL; in assay [5], 0.011 µg/mL.

B2: 322.3 (antibody, V domains shown)
VH: RVQLQQSGPELVKPGASVTISCKASGYIFTSDYIHWVKQRPGQGPEWIGWIYPGNINTKYNEKFKGKATLTADKSSSTAYMQLSSLTSEDSAVYFCARDDGNLYYYAMDYWGQGTSVTVSS
VL: NIVLTQSPASLAVSLGQRATISCRASESVDSYGSSFMHWYQQKPGQPPKLLIYLASNLESGVPARFSGSGSRTDFTLTIDPVEADDAATYYCQQNNEDPRTFGGGTKLEIK
As for B2, the results for the EC50 in assay [6], in assay [7] and in assay [8] were 0.144 µg/mL, 0.084 µg/mL and 0.085 µg/mL, respectively.
